Holding throughout (assay type): biochemical
Conditions in all cases: purified CHI in 50 mM PBS, 100 μM substrate, 25° C.

Data set [1] can be described thus: Specific activity of purified CHI, absorbance decrease at 384 nm, naringenin chalcone. The protocol: (§1) E. coli BL21 (DE3) cells containing one of the pET28b plasmids from Table 2 or Table 3 were used to inoculate 1 L LB medium at OD of 0.1. Cells were incubated at 37° C., 250 rpm until the OD reached 0.4-0.6 and induced by supplementing with 0.1 mM IPTG. After protein expression at 28° C., 250 rpm for 16 h, the cells were harvested by centrifugation at 4,000×g for 15 min. The harvested cells were lysed with 0.5 mg/mL lysozyme (Sigma-Aldrich), 0.4 U/mL Benzonase (Sigma-Aldrich) and BugBuster (Merck) at room temperature for 0.5 h to obtain a crude cell extract. The crude extract was centrifuged at 10,000×g for 30 min to remove the pellet. Recombinant proteins were purified by Ni-affinity chromatography (GE Healthcare). The supernatant of the crude extract was loaded on the column with 20 mM imidazole. The column was washed by 5 column volumes of 30 mM imidazole with 20 mM PBS (pH 7.4) and 500 mM NaCl. The target proteins were eluted by 150 mM imidazole with 20 mM PBS (pH 7.4) and 500 mM NaCl. Buffer exchange with 50 mM PBS (pH 7.5) was achieved by ultrafiltration with Amicon Ultra-15 (Merck). The activity of the respective purified enzyme was determined by measuring the absorbance decrease at 384 nm in the reaction mix (CHI in 50 mM PBS with 100 μM of either naringenin chalcone, hesperetin chalcone, eriodictyol chalcone, homoeriodictyol chalcone or 4-O-methyl butein at 25° C.).

Data set [2] is described as follows: Specific activity of purified CHI, absorbance decrease at 384 nm, eriodictyol chalcone. On the procedure:
as §1

A short description of data set [3]: Specific activity of purified CHI, absorbance decrease at 384 nm, homoeriodictyol chalcone. On the procedure:
as §1

Data set [4] is described as follows: Specific activity of purified CHI, absorbance decrease at 384 nm, hesperetin chalcone. On the procedure: as §1

Here are results for 8 molecules from US20240150797A1, “BIOCATALYTICAL PRODUCTION OF DIHYDROCHALCONES” (Symrise AG, priority 2021, published 2024).

B1: CHI3: Chalcone isomerase from Clostridium sp. JN500901, access no. WP_119972745.1 (protein)
chain: SIEFKPMRSLIYVDVVKEDYRHMLKHWLYYHHIPDSISQFGPYVTKYAFYPALPTPPDGERFGTHRMQLTEHYWLVNPLTPEFKNKTMTEYFPVDVLKWQGNVPDDNEVAILEGKETEKVESGDAARSTGGDNGMPPFIWAFVPISWEEDLKGEGRSMEDGPNYRWQFVMKYPDGVPMEEGDKWFYKEVIPKFQDSPDVTRILTSKIIQNINDCPYQRIVEMWFNCPSGWHRAAVEKAREIKKPSWAKYDEFPYLKPKFEISSLFLTDIAESDNYTQYRGFIPMR
modifications: Clostridium sp. JN500901
With B1, the “Specific activity, Naringenin chalcone” value in data set [1] was 20.0. Also, the “Specific activity, Eriodictyol chalcone” value in data set [2] is given as 13.2. In addition, in data set [3], the “Specific activity, Homoeriodctiol chalcone” value worked out at 7.8. In addition, the “Specific activity, Hesperetin chalcone” value in data set [4] stood at 12.8.

B2: CHI10: Chalcone isomerase from Clostridium sp. SY8519, access no. WP_013977558.1 (protein)
chain: ADFEFNPMRSLIYIDCVKNDYRHKLQYWLYKHHIPDSIAKFEPYVSKYAFYSALPVPEDGEEFGTYNYQLTEHYWLCNPLTADFAVNSLQESFTPDVLKWQGIIPDIDITPEMMAAMQNADDARASEGSEAPGFDLPPFIFAFLPLSWEFQTKGEKLTIEDGPNYRWQFLVKYPEAADAEQADKWLMEEVIPAFAQMDEVKRILSSKVKQEVNGCVYYRVVEMWFDSPSDWHRAVKEKTGAISKPEWASTDSFPYLRPKHEMASIFLSDIPTTDNLLQYRGFIPMR
modifications: Clostridium sp. SY8519
B2: in data set [1], the “Specific activity, Naringenin chalcone” value came out at 0.7. Also, the “Specific activity, Eriodictyol chalcone” value in data set [2] is 2.5. Further, the “Specific activity, Homoeriodctiol chalcone” value in data set [3] was 0.2. The “Specific activity, Hesperetin chalcone” value in data set [4] worked out at 1.2.

B3: CHIera Mut2: Chalcone isomerase variant 2 from Eubacterium ramulus, genetically engineered (protein, listed as Eubacterium ramulus)
chain: MADFKFEPMRSLIYVDCVSEDYRPKLQRWIYKVHIPDSISQFEPYVTKYAFYPSFPIPPQGDRFGYARMQLTEHHWLVSPLDPRLEIKAIAETFPMDVLVWQGQIPAAAHTDAQIDSDGDAGRAAGKSNNAEGNPFIFAFLPMWWEKDLKGKGRTIEDGANYRFNMTIGFPEGVDKAEGEKWLFEKVVPILQAAPECTRVLASAVKKDINGCVMDWVLEIWFENQSGWYKVMVDDMKALEKPSWAQQDAFPFLKPYHNVCSAAVADYTPSNNLANYRGYITMR
B3: the “Specific activity, Naringenin chalcone” value in data set [1] amounted to 4.4. In data set [2], the “Specific activity, Eriodictyol chalcone” value is recorded as 8.3. Moreover, in data set [3], the “Specific activity, Homoeriodctiol chalcone” value is 3.5. In addition, the “Specific activity, Hesperetin chalcone” value in data set [4] is given as 11.5.

B4: CHI14: Chalcone isomerase from Butyrivibrio sp. AC2005, access no. WP_026657636.1 (protein)
chain: AYEFNLMRSLIYVGLAKEEYRAKLEHWLYNHHVPESISKFSPYVTKYAFYQAYPTPPEGDRFGARKMQLTEHYWLVNEHLPEMANNIFQEFMPMDVLRWQGCIPDVDSATVHDNAESGDAGRAVGGGDFPPFIFAFVPINWEEDFKGKERTPVNGPNFRWQFLIQYPEGCSKDEGERWFHEEVVPFLTGSVRVNRLVSSKVKVNYGAPSAQFDRLVEVWFDGPEEWYDLCVNLAKDKLKKPEWAQQDTFPFLKPQHNIASMFLGDRCTSDNLTQYRGFITMR
modifications: Butyrivibrio sp. AC2005
Take B4: in data set [1], the “Specific activity, Naringenin chalcone” value is 45.9. The “Specific activity, Eriodictyol chalcone” value in data set [2] is listed as 50.4. The “Specific activity, Homoeriodctiol chalcone” value in data set [3] is 28.8. Besides, the “Specific activity, Hesperetin chalcone” value in data set [4] is 2.1.

B5: CHI11: Chalcone isomerase from Eubacterium sp., access no. SCK02381.1 (protein)
chain: TKNMLGFEPMRSLIYVDVAKEDYRVKLENWLYKYHIPDSISQFGPYVSKYAFYQALPVPEGGERFGAIKMQLTEHYWLANPNNIAQFDHHKALTEYFPPDVLKWQGNLPDEDFQCENVEGDEARAVKGDASKGTVPFIFAFVPVWWEEDYKGAGRTIEDGPNYRWQMVIKFPDDAKDTGDKWLRDEFIPAFVECEETTRILSSKVIKEANGCEFDRVVEMWFEGPSAWKAAVGKAAKKVRRPAWFETEDFPYLTQSYGISSIFLSDIARSDNMTQYNGYVTMR
modifications: Eubacterium sp
As to B5, the “Specific activity, Naringenin chalcone” value in data set [1] turned out to be 23.2. Besides, the “Specific activity, Eriodictyol chalcone” value in data set [2] is on record as 10.8. Also, the “Specific activity, Homoeriodctiol chalcone” value in data set [3] was 11.4. The “Specific activity, Hesperetin chalcone” value in data set [4] came to 5.8.

B6: CHI15: Chalcone isomerase from Clostridioides difficile, access no. WP_095917646.1 (protein)
chain: ADFEFKIMRSLIYVGLAKEEYRPKLMDWLYRHHIPDSISTFGPYCTKYAFYQAYPTPNEGERFGARKMQLTEHYWLVDEHMPEMANRIMTEYMPMDVLRWQGCIPDVENKRVHENVESGDAGRAVGGDNGCPPFIFAFVPINWEEDFRGKGRTVQDGPNYRWQFMIKYPDGISKEEGEKWFYDEVVPYFTNCCYVNRFVSSKIMINYGATAFDRVSELWFEGEEEWYKAVVEETKSFIKKPEWAQEEEFPYLKPQFNIASVFLGDIATMDAYSQYRGYIPMR
modifications: Clostridioides difficile
Regarding B6, in data set [1], the “Specific activity, Naringenin chalcone” value is given as 14.5. In addition, in data set [2], the “Specific activity, Eriodictyol chalcone” value was determined as 11.7. For the same molecule, the “Specific activity, Homoeriodctiol chalcone” value in data set [3] is listed as 2.2. Also, in data set [4], the “Specific activity, Hesperetin chalcone” value came out at 1.3.

B7: CHI13: Chalcone isomerase from Lactobacillus sp. 54-2, access no. WP_125715151.1 (protein)
chain: SFEFRPMRSVIYVDVIKEKYRPKLLHWLYGHHIQDSISKFGPYVTKYAFYNAFPVPPEGERFGTRRMQMTEHYWLINEMTPEMKNNAITEYMPKDVLRWQGNIPDTDAAAAGNVDGDTGRSAGGANGCQPFVFAHVPINWEEDYKGDGRMVADGPNYRWQFVIKYPENLTEAAGEAWFHDEVVPYFKGRPEVHRFMSSRIMQDVVGCEFERLVEMWFDSEDEWYTAAVAGTTALKKPSWAQQNQFPFLTPQFNIVGMFLPDIPTSDNLAQYRGYITMR
modifications: Lactobacillus sp. 54-2
B7: the “Specific activity, Naringenin chalcone” value in data set [1] was 32.7. The “Specific activity, Eriodictyol chalcone” value in data set [2] came out at 66.2. Besides, the “Specific activity, Homoeriodctiol chalcone” value in data set [3] amounted to 21.7. The “Specific activity, Hesperetin chalcone” value in data set [4] amounted to 2.0.

B8: CHI7: Chalcone isomerase from Clostridium sp. SY8519, access no. WP_013978403.1 (protein)
chain: ADFKFEPMRSFIYVNCAKEDYRPKLQRWLYKTHVPDSIGQFEPYVTKYAFYPSFPTPPEGERFGYCSMQLTEHHWMVSDFDERLGIKAIAETFPPEVLLWQGNITEGMLEAMKKNGGAPGDDGGDSGNEARSTNMEGANPFIFCFAPYWWEDDIKGKGRTIEDGANYRWNVAIGYPEGVSAEEGDRWLFEEVIPVFEAAPECTRILHSKVKKEINGGSGMEHILEFWFENQSGWYQTAVEATKTLKKPAWAQQDQFPFLKPYHKFISVAVADFTMANNLVNYHGYIPRR
modifications: Clostridium sp. SY8519
As for B8, the “Specific activity, Naringenin chalcone” value in data set [1] was 68.3. Besides, the “Specific activity, Eriodictyol chalcone” value in data set [2] was found to be 123.6. Besides, the “Specific activity, Homoeriodctiol chalcone” value in data set [3] worked out at 50.2. For the same molecule, the “Specific activity, Hesperetin chalcone” value in data set [4] is 6.4.
